From patent publication US20190048089A1 (Janssen / Centocor, published 2019)

T1: cyno CD40 on cyno spleen B cells (Macaca fascicularis (cynomolgus), UniProt P25942 21-277 (human entry))
T1 chain: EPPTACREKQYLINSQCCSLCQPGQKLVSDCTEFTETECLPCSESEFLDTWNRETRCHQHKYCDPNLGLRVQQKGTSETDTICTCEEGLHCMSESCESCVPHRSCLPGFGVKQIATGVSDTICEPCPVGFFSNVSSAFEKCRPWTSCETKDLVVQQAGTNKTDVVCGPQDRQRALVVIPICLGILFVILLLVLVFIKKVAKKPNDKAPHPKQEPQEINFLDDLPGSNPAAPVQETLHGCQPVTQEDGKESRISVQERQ


How the values were obtained:
[1] = target: T2, human CD40 on cells (human tonsillar B cells, human dendritic cells, HEK-Blue CD40L cells) (human, UniProt P25942 21-277); assay: cell-based or functional assay
[2] = target: T1, cyno CD40 on cyno spleen B cells; assay: cell-based or functional assay
[3] = target: T2, human CD40 on cells (human tonsillar B …); assay: cell-based or functional assay; remark: listed apart in the source
[4] = target: T3, human CD40 (analyte in SPR) (human, UniProt P25942 21-193); assay: SPR, ProteOn XPR36, mAb captured on anti-human IgG Fc, CD40 as analyte, 25 C, 1:1 Langmuir
T3 construct: also called huCD40
Protocol: Affinity of the antibodies to human CD40 was assessed using Surface Plasmon Resonance (SPR) using a ProteOn XPR36 system (BioRad). […] Approximately 5000 RU (response units) of mAbs were immobilized. The kinetic experiments were performed at 25° C. in running buffer (DPBS+0.01% P20+100 μg/ml BSA). To perform kinetic experiments, 200 RU of mAbs were captured followed by injections of analytes (human or cyno CD40) at 5 concentrations (in a 4-fold serial dilution). The association phase was monitored for 3 minutes at 50 μL/min, then followed by 15 minutes of buffer flow (dissociation phase). The chip surface was regenerated with two 18 second pulses of 100 mM H₃PO₄ (Sigma, Cat#7961) at 100 μL/min.
The collected data were processed using ProteOn Manager software. First, the data was corrected for background using inter-spots. Then, double reference subtraction of the data was performed by using the buffer injection for analyte injections. The kinetic analysis of the data was performed using a Langmuir 1:1 binding model. The results were reported in the format of Ka (On-rate), Kd (Off-rate) and KD (equilibrium dissociation constant).

[5] = target: T3, human CD40 (analyte in SPR); assay: affinity in benchmark table; method not restated (SPR ProteOn of Example 3 presumed); Table 14 benchmark table, not Table 12
[6] = target: T2, human CD40 on cells (human tonsillar B …); assay: cell-based or functional assay; remark: listed apart in the source
[7] = target: T2, human CD40 on cells (human tonsillar B …); assay: cell-based or functional assay; remark: listed apart in the source
[8] = target: T3, human CD40 (analyte in SPR); assay: affinity in benchmark table; method not restated (SPR ProteOn of Example 3 presumed)
[9] = target: T1, cyno CD40 on cyno spleen B cells; assay: cell-based or functional assay

IC50, mCD40L-driven human B-cell proliferation [1]	IC50, sCD40L-driven human B-cell proliferation [1]	IC50, sCD40L-driven cyno B-cell proliferation [2]	IC50, mCD40L-driven DC IL-12p40 production [3]	IC50, sCD40L-driven DC IL-12p40 production [3]	Kd [4]	koff [4]	kon [4]	Kd [5]	IC50, B cell proliferation, membrane CD40L, human B-cells [6]	IC50, B cell proliferation, soluble CD40L, human B-cells [6]	IC50, human DC IL-12p40 production, membrane CD40L [7]	IC50, human DC IL-12p40 production, soluble CD40L [7]	Kd [8]	IC50, B cell proliferation, soluble CD40L, cyno B-cells [9]	Binder
0.181 nM	0.132 nM	0.108 nM	0.245 nM	0.22 nM	0.107 nM	0.000307 s⁻¹	2.86e+06 M⁻¹ s⁻¹	0.0496 nM	–	–	–	–	–	–	C40B176 (antibody, human IgG1, lambda, IgG1sigma) heavy: EVQLVESGGGLVQPGGSLRLSCAASGFTFSSYAMSWVRQAPGKGLEWVSTINAAGGGTYYADSVKGRFTISRDNSKNTLYLQMNSLRAEDTAVYYCAKEGGKYYYYALDVWGQGTTVTVSSASTKGPSVFPLAPSSKSTSGGTAALGCLVKDYFPEPVTVSWNSGALTSGVHTFPAVLQSSGLYSLSSVVTVPSSSLGTQTYICNVNHKPSNTKVDKKVEPKSCDKTHTCPPCPAPEAAGASSVFLFPPKPKDTLMISRTPEVTCVVVDVSAEDPEVKFNWYVDGVEVHNAKTKPREEQYNSTYRVVSVLTVLHQDWLNGKEYKCKVSNKALPSSIEKTISKAKGQPREPQVYTLPPSREEMTKNQVSLTCLVKGFYPSDIAVEWESNGQPENNYKTTPPVLDSDGSFFLYSKLTVDKSRWQQGNVFSCSVMHEALHNHYTQKSLSLSPGK light: SYELTQPPSVSVSPGQTASITCSGDKLGDKYAAWYQQKPGQSPVLVIYQDSRRPSGIPERFSGSNSGNTATLTISGTQAMDEADYYCQAWASSTVVFGGGTKLTVLGQPKAAPSVTLFPPSSEELQANKATLVCLISDFYPGAVTVAWKADSSPVKAGVETTTPSKQSNNKYAASSYLSLTPEQWKSHRSYSCQVTHEGSTVEKTVAPTECS
–	–	–	–	–	–	–	–	–	0.279 nM	0.223 nM	0.948 nM	0.32 nM	0.00936 nM	–	Novartis CFZ533 (antibody, human IgG1, kappa, N297A, V domains shown, Benchmark) VH: QVQLVESGGGVVQPGRSLRLSCAASGFTFSSYGMHWVRQAPGKGLEWVAVISYEESNRYHADSVKGRFTISRDNSKITLYLQMNSLRTEDTAVYYCARDGGIAAPGPDYWGQGTLVTVSS VL: DIVMTQSPLSLTVTPGEPASISCRSSQSLLYSNGYNYLDWYLQKPGQSPQVLISLGSNRASGVPDRFSGSGSGTDFTLKISRVEAEDVGVYYCMQARQTPFTFGPGTKVDIRR
–	–	–	–	–	–	–	–	–	0.132 nM	0.079 nM	0.28 nM	0.119 nM	0.181 nM	0.146 nM	Astellas/Kirin ASKP-1240 (antibody, human IgG4 S228P, kappa, V domains shown, Benchmark) VH: QLQLQESGPGLLKPSETLSLTCTVSGGSISSPGYYGGWIRQPPGKGLEWIGSIYKSGSTYHNPSLKSRVTISVDTSKNQFSLKLSSVTAADTAVYYCTRPVVRYFGWFDPWGQGTLVTVSS VL: AIQLTQSPSSLSASVGDRVTITCRASQGISSALAWYQQKPGKAPKLLIYDASNLESGVPSRFSGSGSGTDFTLTISSLQPEDFATYYCQQFNSYPTFGQGTKVEIKR
